# According to patent US20230174651A1:
# Columns and labels:
# [1] = target: CD79b CAR with CD8α hinge as the spacer; test: flow cytometry, Jurkat cells transduced with construct CAR-1, fluorescently labelled second antibody; gate set on untransduced (UTD) cells
# Target sequence (P01732 138-182): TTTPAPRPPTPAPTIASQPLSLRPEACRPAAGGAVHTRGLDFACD
# [2] = target: CD79b CAR with CD8α hinge as the spacer; test: flow cytometry, Jurkat cells transduced with construct CAR-2, fluorescently labelled second antibody; gate set on untransduced (UTD) cells
# [3] = target: CD79b CAR with CD8α hinge as the spacer; test: flow cytometry, Jurkat cells transduced with construct CAR-3, fluorescently labelled second antibody; gate set on untransduced (UTD) cells
# [4] = target: CD79b CAR with CD8α hinge as the spacer; test: flow cytometry, Jurkat cells transduced with construct CAR-4, fluorescently labelled second antibody; gate set on untransduced (UTD) cells
# [5] = target: CD79b CAR with CD8α hinge as the spacer; test: flow cytometry, Jurkat cells transduced with construct CAR-5, fluorescently labelled second antibody; gate set on untransduced (UTD) cells
# [6] = target: CD79b CAR with CD8α hinge as the spacer; test: flow cytometry, Jurkat cells transduced with construct CAR-6, fluorescently labelled second antibody; gate set on untransduced (UTD) cells
binder,measurement,setting,value
"mouse FC version of CD8B575 (purified from mouse hybridoma clone) (antibody, V domains shown) VH: QVQLQQSGGGLVQPGGSLKLSCAASGFTFSNYYMSWARQTPEKRLEWVAYISNDGDATYYPDSVKGRFTISRDNAKNTLYLQMSSLKSEDTAMYYCTREDYYSDYWFASWGQGTTVTVSS VL: DIVMTQSQKFMSTTIEDRVSITCKASQNVGTAVAWYQQKPGQSPKLLIYSTSNRYTGVPDRFTGSGSGTDFTLTISNIQSEDLADYFCQQYSSYPLTFGGGTKLEIK",% positive (CAR+ Jurkat cells),[1],13%
same,% positive (CAR+ Jurkat cells),[2],41.7%
same,% positive (CAR+ Jurkat cells),[3],15.9%
same,% positive (CAR+ Jurkat cells),[4],54.1%
same,% positive (CAR+ Jurkat cells),[5],84.5%
same,% positive (CAR+ Jurkat cells),[6],84%
